Paper PMC8696220 (Cancer Communications, 2021)

B1: GST-PCAF (enzyme)
chain: MSEAGGAGPGGCGAGAGAGAGPGALPPQPAALPPAPPQGSPCAAAAGGSGACGPATAVAAAGTAEGPGGGGSARIAVKKAQLRSAPRAKKLEKLGVYSACKAEESCKCNGWKNPNPSPTPPRADLQQIIVSLTESCRSCSHALAAHVSHLENVSEEEMNRLLGIVLDVEYLFTCVHKEEDADTKQVYFYLFKLLRKSILQRGKPVVEGSLEKKPPFEKPSIEQGVNNFVQYKFSHLPAKERQTIVELAKMFLNRINYWHLEAPSQRRLRSPNDDISGYKENYTRWLCYCNVPQFCDSLPRYETTQVFGRTLLRSVFTVMRRQLLEQARQEKDKLPLEKRTLILTHFPKFLSMLEEEVYSQNSPIWDQDFLSASSRTSQLGIQTVINPPPVAGTISYNSTSSSLEQPNAGSSSPACKASSGLEANPGEKRKMTDSHVLEEAKKPRVMGDIPMELINEVMSTITDPAAMLGPETNFLSAHSARDEAARLEERRGVIEFHVVGNSLNQKPNKKILMWLVGLQNVFSHQLPRMPKEYITRLVFDPKHKTLALIKDGRVIGGICFRMFPSQGFTEIVFCAVTSNEQVKGYGTHLMNHLKEYHIKHDILNFLTYADEYAIGYFKKQGFSKEIKIPKTKYVGYIKDYEGATLMGCELNPRIPYTEFSVIIKKQKEIIKKLIERKQAQIRKVYPGLSCFKDGVRQIPIESIPGIRETGWKPSGKEKSKEPRDPDQLYSTLKSILQQVKSHQSAWPFMEPVKRTEAPGYYEVIRFPMDLKTMSERLKNRYYVSKKLFMADLQRVFTNCKEYNPPESEYYKCANILEKFFFSKIKEAGLIDK
B2: His-PCAF (enzyme)
chain: B1 chain
B3: GST-fused N-terminal (1-492) domain of PCAF (domain or fragment)
chain: MSEAGGAGPGGCGAGAGAGAGPGALPPQPAALPPAPPQGSPCAAAAGGSGACGPATAVAAAGTAEGPGGGGSARIAVKKAQLRSAPRAKKLEKLGVYSACKAEESCKCNGWKNPNPSPTPPRADLQQIIVSLTESCRSCSHALAAHVSHLENVSEEEMNRLLGIVLDVEYLFTCVHKEEDADTKQVYFYLFKLLRKSILQRGKPVVEGSLEKKPPFEKPSIEQGVNNFVQYKFSHLPAKERQTIVELAKMFLNRINYWHLEAPSQRRLRSPNDDISGYKENYTRWLCYCNVPQFCDSLPRYETTQVFGRTLLRSVFTVMRRQLLEQARQEKDKLPLEKRTLILTHFPKFLSMLEEEVYSQNSPIWDQDFLSASSRTSQLGIQTVINPPPVAGTISYNSTSSSLEQPNAGSSSPACKASSGLEANPGEKRKMTDSHVLEEAKKPRVMGDIPMELINEVMSTITDPAAMLGPETNFLSAHSARDEAARLEERRG
B4: GST-fused C-terminal BROMO (659-832) domain of PCAF (domain or fragment)
chain: FSVIIKKQKEIIKKLIERKQAQIRKVYPGLSCFKDGVRQIPIESIPGIRETGWKPSGKEKSKEPRDPDQLYSTLKSILQQVKSHQSAWPFMEPVKRTEAPGYYEVIRFPMDLKTMSERLKNRYYVSKKLFMADLQRVFTNCKEYNPPESEYYKCANILEKFFFSKIKEAGLIDK

Columns and labels:
His-Fascin = His-Fascin (human, UniProt Q16658 1-493); test: pull-down
GST-Fascin = GST-Fascin (human, UniProt Q16658 1-493); test: pull-down

Binder | binding result (His-Fascin) | binding result (GST-Fascin)
B1 | binds | –
B2 | – | binds
B3 | binds | –
B4 | binds | –
